Laboratory results as given in paper PMC5972394.

Molecular target: Mycobacterium thermoresistible (Mth) IMPDH ΔCBS (Mycobacterium thermoresistible)
Test: crystal structure

Mycobacterium thermoresistible (Mth) IMPDH ΔCBS (enzyme)
stoichiometry N: 4
